Changes are numbered by the printed parent chain. Numbers in names are those of the source.
B1: FKBP-164 (protein)
chain: HCPIKSRKGDVLHAHYTGKLEDGTEFDSSLPRNQPFVFSLGTGERIKGWDQGLLGMCEGEKRKLVIPSELGYGERGWVPKIPGGATLVFEVELLKIER
modifications: Description of sequence: Construct Name: FKBP-164; Mutation(s): Q72R Q84E A117W DRD M54A P118V V85R
B2: FKBP-234 (protein)
chain: B1 chain with A14M, D50T, V78P
modifications: Description of sequence: Construct Name: FKBP-234; Mutation(s): Q72R Q84E A117W V85R DRD D90T
B3: FKBP-245 (protein)
chain: B1 chain with A14M, S29H, R45V, V78P
modifications: Description of sequence: Construct Name: FKBP-245; Mutation(s): Q72R Q84E A117W DRD S69H
B4: FKBP-165 (protein)
chain: B1 chain with V78P, P79V
modifications: Description of sequence: Construct Name: FKBP-165; Mutation(s): Q72R Q84E A117W DRD M54A P119V V85R
B5: FKBP-241 (protein)
chain: B1 chain with E21Y, V78P
modifications: Description of sequence: Construct Name: FKBP-241; Mutation(s): Q72R Q84E A117W V85R DRD E61Y M54A
B6: FKBP-231 (protein)
chain: B1 chain with A14M, G23M, V78P
modifications: Description of sequence: Construct Name: FKBP-231; Mutation(s): Q72R Q84E A117W V85R DRD G63M
B7: FKBP-249 (protein)
chain: B1 chain with A14M, S28D, V78P
modifications: Description of sequence: Construct Name: FKBP-249; Mutation(s): Q72R Q84E A117W V85R DRD S68D
B8: FKBP-243: FKBP13 DRD-AcGFP construct of Table 10 (protein)
chain: B1 chain with A14M, V78S
modifications: Description of sequence: Construct Name: FKBP-243; Mutation(s): Q72R Q84E A117W V85R DRD P118S
B9: FKBP-229: FKBP13 DRD-AcGFP construct of Table 10 (protein)
chain: B1 chain with V78P, E97R
modifications: Description of sequence: Construct Name: FKBP-229; Mutation(s): Q72R Q84E A117W V85R DRD E137R M54A
B10: FKBP-237 (protein)
chain: B1 chain with A14M, G73N, V78P
modifications: Description of sequence: Construct Name: FKBP-237; Mutation(s): Q72R Q84E A117W V85R DRD G113N
B11: FKBP-230: FKBP13 DRD-AcGFP construct of Table 10 (protein)
chain: B1 chain with A14M, G23M, R45V, V78P
modifications: Description of sequence: Construct Name: FKBP-230; Mutation(s): Q72R Q84E A117W DRD G63M
B12: FKBP-240: FKBP13 DRD-AcGFP construct of Table 10 (protein)
chain: B1 chain with A14M, E21Y, V78P
modifications: Description of sequence: Construct Name: FKBP-240; Mutation(s): Q72R Q84E A117W V85R DRD E61Y
B13: FKBP-236 (protein)
chain: B1 chain with A14M, R45V, G73N, V78P
modifications: Description of sequence: Construct Name: FKBP-236; Mutation(s): Q72R Q84E A117W DRD G113N
B14: FKBP-250 (protein)
chain: B1 chain with A14M, R45V, V78P, E90F
modifications: Description of sequence: Construct Name: FKBP-250; Mutation(s): Q72R Q84E A117W DRD E130F
B15: FKBP-235 (protein)
chain: B1 chain with D50T, V78P
modifications: Description of sequence: Construct Name: FKBP-235; Mutation(s): Q72R Q84E A117W V85R DRD D90T M54A
B16: FKBP-239 (protein)
chain: B1 chain with A14M, E21Y, R45V, V78P
modifications: Description of sequence: Construct Name: FKBP-239; Mutation(s): Q72R Q84E A117W DRD E61Y
B17: FKBP-233: FKBP13 DRD-AcGFP construct of Table 10 (protein)
chain: B1 chain with A14M, R45V, D50T, V78P
modifications: Description of sequence: Construct Name: FKBP-233; Mutation(s): Q72R Q84E A117W DRD D90T
B18: FKBP-247 (protein)
chain: B1 chain with S29H, V78P
modifications: Description of sequence: Construct Name: FKBP-247; Mutation(s): Q72R Q84E A117W V85R DRD S69H M54A
B19: FKBP-244: FKBP13 DRD-AcGFP construct of Table 10 (protein)
chain: B1 chain with V78S
modifications: Description of sequence: Construct Name: FKBP-244; Mutation(s): Q72R Q84E A117W V85R DRD P118S M54A
B20: FKBP-232 (protein)
chain: B1 chain with G23M, V78P
modifications: Description of sequence: Construct Name: FKBP-232; Mutation(s): Q72R Q84E A117W V85R DRD G63M M54A
B21: FKBP-246 (protein)
chain: B1 chain with A14M, S29H, V78P
modifications: Description of sequence: Construct Name: FKBP-246; Mutation(s): Q72R Q84E A117W V85R DRD S69H
B22: FKBP-238 (protein)
chain: B1 chain with G73N, V78P
modifications: Description of sequence: Construct Name: FKBP-238; Mutation(s): Q72R Q84E A117W V85R DRD G113N M54A
B23: FKBP-248 (protein)
chain: B1 chain with A14M, S28D, R45V, V78P
modifications: Description of sequence: Construct Name: FKBP-248; Mutation(s): Q72R Q84E A117W DRD S68D
B24: FKBP-242 (protein)
chain: B1 chain with A14M, R45V, V78S
modifications: Description of sequence: Construct Name: FKBP-242; Mutation(s): Q72R Q84E A117W DRD P118S
B25: FKBP-252 (protein)
chain: B1 chain with A14M, R45V, V78P, I96P
modifications: Description of sequence: Construct Name: FKBP-252; Mutation(s): Q72R Q84E A117W DRD I136P
B26: FKBP-253 (protein)
chain: B1 chain with A14M, V78P, I96P
modifications: Description of sequence: Construct Name: FKBP-253; Mutation(s): Q72R Q84E A117W V85R DRD I136P

Experiment: Example 4: dose response of FKBP constructs 160-255, Ec50, Ec90 and fold change (raw and normalized to mCherry)
Format: cell-based
Conditions: FKBP constructs 160-255; not normalized; read-out: EC90
Description: Additional experiments were performed for constructs FKBP-160-292.

Molecule	EC90
B1	580 nM
B2	8760 nM
B3	5830 nM
B4	970 nM
B5	221 nM
B6	396 nM
B7	472 nM
B8	125 nM
B9	484 nM
B10	550 nM
B11	997 nM
B12	111 nM
B13	1810 nM
B14	101 nM
B15	9980 nM
B16	223 nM
B17	272 nM
B18	2810 nM
B19	307 nM
B20	938 nM
B21	1530 nM
B22	846 nM
B23	1800 nM
B24	466 nM

Same assay, conditions: fold change during initial analysis

Molecule	FC (fold change)
B1	42.7
B2	23.5
B3	40.6
B4	47.6
B5	43.9
B25	1.3
B6	39.9
B7	33.7
B8	37.1
B9	54.0
B10	24.1
B11	49.0
B12	43.7
B13	39.1
B14	22.0
B15	23.5
B16	31.1
B17	47.2
B18	35.0
B19	51.2
B20	35.0
B21	30.4
B22	26.8
B23	50.1
B24	24.4
B26	2.3

Same assay, conditions: normalized to mCherry; read-out: EC90 (Norm)

Molecule	EC90
B1	621 nM
B2	12100 nM
B3	5870 nM
B4	984 nM
B5	222 nM
B6	399 nM
B7	494 nM
B8	127 nM
B9	455 nM
B10	484 nM
B11	890 nM
B12	111 nM
B13	1960 nM
B14	114 nM
B15	11100 nM
B16	243 nM
B17	335 nM
B18	2950 nM
B19	328 nM
B20	1090 nM
B21	1520 nM
B22	863 nM
B23	1880 nM
B24	539 nM
